Laboratory results as given in paper PMC7707563, “Lack of evidence for expression and function of IL-39 in human immune cells” (PLoS ONE, 2020).

T1: human IL-23 p19 (aa20-189) (human, UniProt Q9NPF7 20-189)
T1 construct: human IL-23 p19 subunit, aa20-189, ORF in the mammalian expression vector pRS5a, untagged; The stated range lacks the protein's own signal peptide, yet the protein is secreted; also called IL-23A-p19; source: HEK293FT, transfected (pRS5a-IL23p19), in concentrated supernatant
T1 sequence (looked up): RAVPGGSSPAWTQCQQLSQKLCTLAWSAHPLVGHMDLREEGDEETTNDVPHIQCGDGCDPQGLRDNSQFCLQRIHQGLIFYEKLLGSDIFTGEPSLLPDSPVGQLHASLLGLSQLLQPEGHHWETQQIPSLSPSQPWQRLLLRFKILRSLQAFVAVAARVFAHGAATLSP

B1: C-terminally 10 x His-tagged EBI3 (natural protein, human, UniProt Q14213 21-229, looked up)
chain: RKGPPAALTLPRVQCRASRYPIAVDCSWTLPPAPNSTSPVSFIATYRLGMAARGHSWPCLQQTPTSTSCTITDVQLFSMAPYVLNVTAVHPWGSSSSFVPFITEHIIKPDPPEGVRLSPLAERQLQVQWEPPGSWPFPEIFSLKYWIRYKRQGAARFHRVGPIEATSFILRAVRPRARYYVQVAAQDLTDYGELSDWSLPATATMSLGK
notes: human Epstein-Barr Virus-induced 3 (EBI3), aa21-229, ORF in the mammalian expression vector pRS5a; The limits aa21-229 are printed for EBI3; also called EBI3-His; His-EBI3; source: HEK293FT, transfected (pRS5a-EBI3-His10), in concentrated supernatant; not shown: His10, C-terminal, kept

Legend:
[1] = target: human IL-23 receptor on HEK-Blue IL-23 cells (human) (UniProt Q5VWK5)
[2] = target: T1, human IL-23 p19 (aa20-189); experiment: ELISA; sandwich: plate coated with anti-p19 antibody, concentrated supernatants of p19 and EBI3-His transfected HEK293FT cells 2 hrs at room temperature, detection with biotinylated EBI3 antibody and HRP-Avidin; details: partners not purified

human IL-23 receptor on HEK-Blue IL-23 cells (human), sequence (Q5VWK5 24-629): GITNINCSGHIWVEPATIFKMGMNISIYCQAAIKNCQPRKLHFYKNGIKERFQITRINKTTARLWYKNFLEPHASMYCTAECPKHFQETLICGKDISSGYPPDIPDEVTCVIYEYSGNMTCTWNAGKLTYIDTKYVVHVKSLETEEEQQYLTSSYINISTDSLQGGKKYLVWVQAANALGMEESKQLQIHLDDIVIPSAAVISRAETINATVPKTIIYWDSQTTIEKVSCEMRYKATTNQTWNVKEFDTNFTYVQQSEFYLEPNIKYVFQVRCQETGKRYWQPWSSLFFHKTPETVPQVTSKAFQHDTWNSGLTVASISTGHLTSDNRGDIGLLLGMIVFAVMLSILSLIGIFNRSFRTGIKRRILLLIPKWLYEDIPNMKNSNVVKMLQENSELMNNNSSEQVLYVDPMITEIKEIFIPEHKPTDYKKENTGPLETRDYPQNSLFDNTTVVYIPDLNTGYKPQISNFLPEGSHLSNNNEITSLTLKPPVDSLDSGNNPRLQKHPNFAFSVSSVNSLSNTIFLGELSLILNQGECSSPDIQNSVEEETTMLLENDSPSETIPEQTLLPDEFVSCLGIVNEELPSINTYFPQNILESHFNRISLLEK

Molecule | STAT3 activity (SEAP reporter) over background in HEK-Blue IL-23 cells, various concentrations of IL-23, concentration-dependent; number printed for 2 pM IL-23 [1] | fold increase in optical density against supernatants of mock or single transfected cells [2]
recombinant human IL-23 (from UniProt Q9NPF7 20-189; P29460 23-328) (complex) | 2.5 fold | –
B1 | – | ~2.5 fold
